Columns and labels:
[1] = Verification of EAP to EA conversion reaction by ALP, detected with LrHP (4-AA/TOOS/POD, absorbance at 555 nm); type: biochemical; details: 1 mM EAP, LrHP final 25 pg/ml, pH 8.0, 300 seconds
Procedure: A reagent for activity measurement of the following composition was prepared.
A sample containing 1 mM EA was mixed with the reaction reagent (pH 8.0) shown in Table 2 in a 1.5 ml microtube at 4° C. 2 μl of ALP (so that the final concentration is 5 U/ml) was added thereto and incubated at 37° C. for 5 minutes. 20 μl of LrHP (so that the final concentration is 25 pg/ml) was added thereto, mixed by pipetting, transferred to a cuvette, and immediately set in a spectrophotometer (U-3900, manufactured by Hitachi High-Tech Science Corporation), and the absorbance at 555 nm was measured over time for 300 seconds.
Similarly, a sample containing 1 mM EAP was used, and 2 μl of alkaline phosphatase (ALP) or water was added to the reaction reagent (pH 8.0) (so that the final concentration is 5 U/ml) and incubated at 37° C. for 5 minutes. Next, 20 μl of LrHP (so that the final concentration is 25 pg/ml) was added thereto, mixed by pipetting, transferred to a cuvette, and immediately set in a spectrophotometer, and the absorbance at 555 nm was measured over time for 300 seconds.
The time immediately after the addition of LrHP is set to 0 seconds from the start of the measurement. […] This linear increase in absorbance was similar to the tendency to increase in the case where EA was directly used as a substrate instead of acting phosphatase on EAP.

[2] = Measurement of EAP combined with ALP and LrHP in plasma model solution containing contaminating amines; type: biochemical
Procedure: The reaction reagent (pH 8.0) shown in Table 2 was mixed in a 1.5 ml microtube at 4° C. and incubated at 37° C. for 2 minutes. In this case, 47 μl of LrHP was added (so that the final concentration is 1 mg/ml). […] The measurement was paused, 10 μl of alkaline phosphatase (25 U/ml) was added to the cuvette, mixed by pipetting, and immediately set in a spectrophotometer, and the absorbance at 555 nm was measured over time for 500 seconds.

B1: LrHP: hypothetical protein (GenBank ID CDS02610.1), amino acid sequence SEQ ID NO: 11, derived from Lichtheimia ramosa; oxidase acting on EA (protein, listed as Lichtheimia ramosa)
chain: MSSSPIKPYPLDPLTADEIRRAAALIRETRGQDTTYVFNSLTLKEPSKQQMMSYLGWTNSPSHPKPVTIDREVFAVLIDRPSGLVHEMTVNLDKNQVTRWNKVEGRQPTVNVFEMLEAEREILKDERVKEQCRQLGINDMSMVFADPWGVGYHEIKGKRLVQALMYARTSPDDNQYAHPLDFNPLYDVNAKKVIDIIVSKRRNSSFDRPVIPMANHHFLPEHLGQDRLRKDIKPIEITQPQGVSFSIRDGHQLHWQKWDMHLSFNYREGLVINNLSYRDMDGTVRPIIYRMSLSEMVVPYANPYKPYNHKMAFDVGEYGLGNLTNSLELGCDCVGKICYLDATLSDLNGDPWQIPNAICIHEEDTGLLFKHTDYRTGKAHSARSRRLVISHIVTAANYDYGLYYYFYQDGTIQYEVKATGELNTQVLAADEDAAPYGTIVAPQVDAQHHQHLFSMRIDPMVDGPNNSVAEVDVVASDLPVGHPHNSIGNSFYPVTKVFNTTDEAKTMASIERHRSWKIINENKIHPYAKQPVGFKMMAHPTPPLLPKPGSIVYERAMFASKTLWVTPYNEEQRYPGGFYCYQSEPSENLGLPQWTKETQNVRDTDIVCWLNFGITHIPRVEDFPIMPIETCGVMLKPVNFFLGNPGIDIPPSTRQSTKSAYATEATCCRKNNL
change in absorbance at 555 nm (EAP oxidization activity) ([1]; ALP added (final 5 U/ml, 37° C., 5 minutes)): increase in absorbance with time was observed | change in absorbance at 555 nm (EAP oxidization activity) ([1]; ALP not added): no change in absorbance was observed | elimination of EA in the sample ([2]; LrHP final 1 mg/ml, EA 10.4 μM, β-alanine 29 μM, taurine 39.5 μM, EAP 1.5 μM, after 500 seconds): the EA in the sample was exhausted | change in absorbance at 555 nm after 500 seconds ([2]; water added instead of ALP, final EAP 1.5 μM): No change in absorbance occurred
